Data set [1] deals with the molecule itself. The experiment in a line: crystal structure.
Data set [2] concerns the molecule itself. Description: crystal structure. The source holds these as a separate data set.

Like-named read-outs stand apart in the source and are kept apart here.

Broadly, the stoichiometry N is a count of units in the complex or per binding partner.

B1: Native CalS11 (TDP-rhamnose 3'-O-methyltransferase), from E. coli (enzyme, Micromonospora echinospora)
chain: MDSGDGQDLRAFVHDSPEETETTQRLTKLLTNSPIPTEELVNNLPLFLRRHQMTDLLSMDALYRQVLDVPGVIMEFGVRFGRHLGTFAALRGVYEPYNPLRRIVGFDTFTGFPDVNDVDRVGPTAYQGRFAVPGGYPAYLKEVLDAHECSDFFGHVTQRSVLVEGDVRETVPRYLAENPQTVIALAYFDLDLYEPTKAVLEAIRPYLTKGSIVAFDELDNPKWPGENIAMRKVLGLDHAPLRLLPGRPAPAYLRWGD
Take B1: in the data set “crystal structure [1]”, the “stoichiometry N” value came out at 10.

B2: Selenomethionyl CalS11 (TDP-rhamnose 3'-O-methyltransferase), cell-free synthesized (enzyme, Micromonospora echinospora)
chain: DSGDGQDLRAFVHDSPEETETTQRLTKLLTNSPIPTEELVNNLPLFLRRHQMTDLLSMDALYRQVLDVPGVIMEFGVRFGRHLGTFAALRGVYEPYNPLRRIVGFDTFTGFPDVNDVDRVGPTAYQGRFAVPGGYPAYLKEVLDAHECSDFFGHVTQRSVLVEGDVRETVPRYLAENPQTVIALAYFDLDLYEPTKAVLEAIRPYLTKGSIVAFDELDNPKWPGENIAMRKVLGLDHAPLRLLPGRPAPAYLRWGD
modifications: selenomethionine in place of methionine
In the case of B2, in the data set “crystal structure [2]”, the “stoichiometry N” value came to 10.
